Read-outs that look alike come from different tables or passages of the source.

Test [1] concerns the target C1q complement (rabbit serum as complement source) (rabbit). The test is described as follows: cell-based or functional assay.
The target of test [2] is FcgRIIIa receptor (CD16a) on human NK cells (human) (UniProt P08637). Briefly: cell-based or functional assay.
Test [3] deals with C1q complement (rabbit serum as complement source) (rabbit). The test is described as follows: cell-based or functional assay. The source holds these as a separate data set.
Test [4] concerns the target CD32aH (FcgRIIa receptor, H at position 131) (human) (UniProt P12318). Briefly: ELISA, purified IgG on coated receptor, ratio against wild-type. (ELISA stands for enzyme-linked immunosorbent assay.)
In test [5] the target is CD32aR (FcgRIIa receptor, R at position 131) (human) (UniProt P12318). Described as above.
For test [6], the target named is CD32b (FcgRIIb receptor) (human) (UniProt P31994). The test is described as above.
Test [7] deals with CD64 (UniProt P12314). The description is as above.
Test [8] concerns the target C1q complement (rabbit serum as complement source) (rabbit). Briefly: cell-based or functional assay. This is another data set of the same source.

Sequence of CD32aH (FcgRIIa receptor, H at position 131) (human) (P12318 34-217): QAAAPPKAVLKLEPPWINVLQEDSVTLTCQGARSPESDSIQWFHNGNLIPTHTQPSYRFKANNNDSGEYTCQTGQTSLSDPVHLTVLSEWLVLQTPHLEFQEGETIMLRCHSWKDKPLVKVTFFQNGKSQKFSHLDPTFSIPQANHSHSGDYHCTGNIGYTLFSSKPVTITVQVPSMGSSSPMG
Sequence of CD32b (FcgRIIb receptor) (human) (P31994 46-217): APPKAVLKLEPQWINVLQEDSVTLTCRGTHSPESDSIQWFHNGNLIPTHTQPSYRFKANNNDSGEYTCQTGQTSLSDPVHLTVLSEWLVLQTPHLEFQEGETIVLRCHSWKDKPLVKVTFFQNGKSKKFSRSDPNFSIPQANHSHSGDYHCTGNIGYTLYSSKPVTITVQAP
Sequence of CD64 (P12314 16-288 limits assumed): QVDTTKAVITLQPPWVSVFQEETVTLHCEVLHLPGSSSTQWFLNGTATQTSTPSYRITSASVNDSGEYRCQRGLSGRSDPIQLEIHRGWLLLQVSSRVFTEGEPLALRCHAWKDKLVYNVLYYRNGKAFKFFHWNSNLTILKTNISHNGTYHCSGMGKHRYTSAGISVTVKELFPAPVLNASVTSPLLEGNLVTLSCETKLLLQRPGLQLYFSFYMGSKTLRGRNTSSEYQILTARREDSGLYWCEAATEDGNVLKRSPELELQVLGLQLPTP
Sequence of FcgRIIIa receptor (CD16a) on human NK cells (human) (P08637 17-254): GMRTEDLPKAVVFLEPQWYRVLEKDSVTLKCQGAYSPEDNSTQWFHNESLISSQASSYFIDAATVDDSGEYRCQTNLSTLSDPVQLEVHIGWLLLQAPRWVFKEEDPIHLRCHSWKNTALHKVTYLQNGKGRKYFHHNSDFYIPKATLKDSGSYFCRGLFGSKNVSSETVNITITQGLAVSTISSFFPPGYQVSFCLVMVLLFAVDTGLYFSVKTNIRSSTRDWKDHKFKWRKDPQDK

“anti-CD20 IgG variant A3A-14 (S298N, A378V) (antibody)” showed a CDC in test [1] of 0.7. In test [2], the ADCC was found to be 12.8; the ADCC, EC50: Antibody concentration (ng/ml) giving 50% maximum lysis of an internal control was determined as 0.82 ng/mL; the ADCC, Ratio [WT]/[antibody] is 12.8. Further, in test [3], the CDC, Antibody concentration (ng/ml) giving 50% lysis of an internal control was found to be 341 ng/mL and the CDC, Ratio [WT]/[antibody] stood at 0.7. Further, the ELISA ratio (purified antibodies) in test [4] was determined as 1.1. For the same substance, the ELISA ratio (purified antibodies) in test [5] is 0.8. Also, in test [6], the ELISA ratio (purified antibodies) was 0.9. Further, in test [7], the ELISA ratio (purified antibodies) amounted to 1.6.
Turning to “anti-CD20 IgG variant K3B-87 (V323I, F405L) (antibody)”, in test [2], the ADCC, EC50: Antibody concentration (ng/ml) giving 50% maximum lysis of an internal control stood at 16.3 ng/mL and the ADCC, Ratio [WT]/[antibody] amounted to 0.64. In test [3], the CDC, Antibody concentration (ng/ml) giving 50% lysis of an internal control is 107 ng/mL and the CDC, Ratio [WT]/[antibody] came out at 2.22.
In the case of “anti-CD20 IgG variant G3A-103 (K248E, A378V) (antibody)”, the CDC in test [1] came out at 7.1. In test [2], the ADCC was 33.9; the ADCC, EC50: Antibody concentration (ng/ml) giving 50% maximum lysis of an internal control was found to be 0.31 ng/mL; the ADCC, Ratio [WT]/[antibody] was 33.9. In test [3], the CDC, Antibody concentration (ng/ml) giving 50% lysis of an internal control was found to be 33.3 ng/mL and the CDC, Ratio [WT]/[antibody] amounted to 7.1. For the same substance, in test [4], the ELISA ratio (purified antibodies) turned out to be 0.5. The ELISA ratio (purified antibodies) in test [5] is 0.9. Also, the ELISA ratio (purified antibodies) in test [6] amounted to 1.2. In test [7], the ELISA ratio (purified antibodies) was determined as 1.2.
In test [1], “anti-CD20 IgG variant J3B-23 (N286I, A378V, F423Y) (antibody)” showed a CDC of 2.4. In test [2], this substance gave an ADCC of 18.4 and an ADCC, EC50: Antibody concentration (ng/ml) giving 50% maximum lysis of an internal control of 0.57 ng/mL.
As to “anti-CD20 IgG variant N3A-58 (V284L, K334R, A378V, K447N) (antibody)”, in test [2], the ADCC, EC45: Antibody concentration (ng/ml) giving 45% maximum lysis of an internal control was 4.4 ng/mL and the ADCC, Ratio [WT]/[antibody] came to 0.36. Moreover, in test [8], the CDC, Antibody concentration (ng/ml) giving 50% lysis of an internal control was found to be 36 ng/mL and the CDC, Ratio [WT]/[antibody] came out at 3.69.
Regarding “anti-CD20 IgG variant P4B-89 (T307P, T366A, A378V) (antibody)”, in test [2], the ADCC, EC45: Antibody concentration (ng/ml) giving 45% maximum lysis of an internal control worked out at 3.6 ng/mL and the ADCC, Ratio [WT]/[antibody] amounted to 0.44. Also, in test [8], the CDC, Antibody concentration (ng/ml) giving 50% lysis of an internal control came to 115 ng/mL and the CDC, Ratio [WT]/[antibody] came to 1.16.
For “anti-CD20 IgG variant G3A-139 (T307N, V323I) (antibody)”, in test [2], the ADCC, EC50: Antibody concentration (ng/ml) giving 50% maximum lysis of an internal control amounted to 2.8 ng/mL and the ADCC, Ratio [WT]/[antibody] was 3.75. For the same substance, in test [3], the CDC, Antibody concentration (ng/ml) giving 50% lysis of an internal control came out at 85.7 ng/mL and the CDC, Ratio [WT]/[antibody] amounted to 2.76.
In the case of “anti-CD20 IgG variant N3A-32 (K326T, K334N, P352S, N421T) (antibody)”, in test [2], the ADCC, EC45: Antibody concentration (ng/ml) giving 45% maximum lysis of an internal control came to 2.9 ng/mL and the ADCC, Ratio [WT]/[antibody] is 0.55. For the same substance, in test [8], the CDC, Antibody concentration (ng/ml) giving 50% lysis of an internal control turned out to be 66 ng/mL and the CDC, Ratio [WT]/[antibody] was 2.02.
“anti-CD20 IgG variant G3A-45 (K246R, A378V) (antibody)”: in test [1], the CDC, Antibody concentration (ng/ml) giving 50% lysis of an internal control stood at 195 ng/mL and the CDC, Ratio [WT]/[antibody] amounted to 1.34.
Regarding “anti-CD20 IgG variant J3A-14 (K326T) (antibody)”, in test [1], the CDC is 3.7. In test [2], this substance displayed an ADCC, EC50: Antibody concentration (ng/ml) giving 50% maximum lysis of an internal control of 7.39 ng/mL. Also, the CDC, Antibody concentration (ng/ml) giving 50% lysis of an internal control in test [3] came out at 64.1 ng/mL.
For the substance “anti-CD20 IgG variant QL2A-16 (K248E, N421T) (antibody)”, in test [2], the ADCC, EC50: Antibody concentration (ng/ml) giving 50% maximum lysis of an internal control worked out at 4.36 ng/mL and the ADCC, Ratio [WT]/[antibody] was determined as 2.41. For the same substance, in test [3], the CDC, Antibody concentration (ng/ml) giving 50% lysis of an internal control turned out to be 51.5 ng/mL and the CDC, Ratio [WT]/[antibody] stood at 4.59.
“anti-CD20 IgG variant G3A-43 (A231V, A378V) (antibody)”: the CDC in test [1] came out at 2.8. Besides, the CDC, Antibody concentration (ng/ml) giving 50% lysis of an internal control in test [1] is 168 ng/mL. In addition, in test [1], the CDC, Ratio [WT]/[antibody] stood at 1.55. In addition, in test [2], the ADCC came out at 12. In addition, the ELISA ratio (purified antibodies) in test [4] came out at 5.3; in test [5], 3.6; in test [6], 2.7; in test [7], 1.4.
For “anti-CD20 IgG variant DL4A-54 (P352L, Q418P) (antibody)”, in test [2], the ADCC, EC50: Antibody concentration (ng/ml) giving 50% maximum lysis of an internal control is above 5000 ng/mL and the ADCC, Ratio [WT]/[antibody] is below 0.002. In test [3], the CDC, Antibody concentration (ng/ml) giving 50% lysis of an internal control amounted to 165 ng/mL and the CDC, Ratio [WT]/[antibody] is 1.44.
Take “anti-CD20 IgG variant N3A-27 (K290E, A378V, K392R, S440G) (antibody)”: in test [2], the ADCC, EC45: Antibody concentration (ng/ml) giving 45% maximum lysis of an internal control is 18.7 ng/mL and the ADCC, Ratio [WT]/[antibody] was 0.86. In addition, in test [8], the CDC, Antibody concentration (ng/ml) giving 50% lysis of an internal control came out at 179 ng/mL and the CDC, Ratio [WT]/[antibody] was 0.74.
For the substance “anti-CD20 IgG variant O3A-44 (A378V, K439R) (antibody)”, in test [2], the ADCC, EC45: Antibody concentration (ng/ml) giving 45% maximum lysis of an internal control was determined as 2.6 ng/mL and the ADCC, Ratio [WT]/[antibody] turned out to be 0.62. Besides, in test [8], the CDC, Antibody concentration (ng/ml) giving 50% lysis of an internal control turned out to be 129 ng/mL and the CDC, Ratio [WT]/[antibody] amounted to 1.03.
For “anti-CD20 IgG variant A3A-184 (K334N, P352S, V397M) (antibody)”, the CDC in test [1] is 2.2. Further, the CDC, Antibody concentration (ng/ml) giving 50% lysis of an internal control in test [1] was 210 ng/mL. Besides, the CDC, Ratio [WT]/[antibody] in test [1] came out at 1.25. The same substance returned an ADCC in test [2] of 5.3. For the same substance, the ELISA ratio (purified antibodies) in test [4] came to 1.33; in test [5], 3.2; in test [6], 3.3; in test [7], 1.4.
“anti-CD20 IgG variant O3A-86 (K248E, K290E, N361H, P396L) (antibody)”: in test [2], the ADCC, EC45: Antibody concentration (ng/ml) giving 45% maximum lysis of an internal control turned out to be 4.4 ng/mL and the ADCC, Ratio [WT]/[antibody] was found to be 0.36. In test [8], the CDC, Antibody concentration (ng/ml) giving 50% lysis of an internal control was 44 ng/mL and the CDC, Ratio [WT]/[antibody] stood at 3.02.
In turn, “anti-CD20 IgG variant J3B-118 (P396L, N421T) (antibody)” came in with a CDC in test [1] of 12.2. The same substance returned a CDC, Antibody concentration (ng/ml) giving 50% lysis of an internal control in test [1] of 38.7 ng/mL. The CDC, Ratio [WT]/[antibody] in test [1] came to 6.77. The substance further registered an ADCC in test [2] of 9.7. In addition, the ELISA ratio (purified antibodies) in test [4] was determined as 1; in test [5] it was 1.1; in test [6] it was 1; in test [7], 1.6.
Consider “anti-CD20 IgG variant J3B-16 (S267G, A378T, V397M) (antibody)”, for which, in test [1], the CDC, Antibody concentration (ng/ml) giving 50% lysis of an internal control came out at 210 ng/mL and the CDC, Ratio [WT]/[antibody] worked out at 1.25.
Take “anti-CD20 IgG variant Q4B-68 (T307P, A378V, T394P) (antibody)”: in test [2], the ADCC, EC45: Antibody concentration (ng/ml) giving 45% maximum lysis of an internal control was found to be 1.7 ng/mL and the ADCC, Ratio [WT]/[antibody] amounted to 0.94. Further, in test [8], the CDC, Antibody concentration (ng/ml) giving 50% lysis of an internal control was 126 ng/mL and the CDC, Ratio [WT]/[antibody] is 1.06.

For the origin of these results see patent publication US20180030111A1.
